{"source": "paper PMC4825646", "about": "“MEC-10 and MEC-19 Reduce the Neurotoxicity of the MEC-4(d) DEG/ENaC Channel in Caenorhabditis elegans” (G3: Genes|Genomes|Genetics, 2016)", "proteins": {"B1": {"name": "C-terminally EGFP-tagged MEC-4 (natural protein, C. elegans, UniProt P24612 1-768, looked up)", "chain": "MSWMQNLKNYQHLRDPSEYMSQVYGDPLAYLQETTKFVTEREYYEDFGYGECFNSTESEVQCELITGEFDPKLLPYDKRLAWHFKEFCYKTSAHGIPMIGEAPNVYYRAVWVVLFLGCMIMLYLNAQSVLDKYNRNEKIVDIQLKFDTAPFPAITLCNLNPYKASLATSVDLVKRTLSAFDGAMGKAGGNKDHEEEREVVTEPPTTPAPTTKPARRRGKRDLSGAFFEPGFARCLCGSQGSSEQEDKDEEKEEELLETTTKKVFNINDADEEWDGMEEYDNEHYENYDVEATTGMNMMEECQSERTKFDEPTGFDDRCICAFDRSTHDAWPCFLNGTWETTECDTCNEHAFCTKDNKTAKGHRSPCICAPSRFCVAYNGKTPPIEIWTYLQGGTPTEDPNFLEAMGFQGMTDEVAIVTKAKENIMFAMATLSMQDRERLSTTKRELVHKCSFNGKACDIEADFLTHIDPAFGSCFTFNHNRTVNLTSIRAGPMYGLRMLVYVNASDYMPTTEATGVRLTIHDKEDFPFPDTFGYSAPTGYVSSFGLRLRKMSRLPAPYGDCVPDGKTSDYIYSNYEYSVEGCYRSCFQQLVLKECRCGDPRFPVPENARHCDAADPIARKCLDARMNDLGGLHGSFRCRCQQPCRQSIYSVTYSPAKWPSLSLQIQLGSCNGTAVECNKHYKENGAMVEVFYEQLNFEMLTESEAYGFVNLLADFGGQLGLWCGISFLTCCEFVFLFLETAYMSAEHNYSLYKKKKAEKAKKIASGSF", "notes": "MEC-4, C. elegans DEG/ENaC protein, wild type; construct described in Chen et al. (2015); also called MEC-4::EGFP; source: Xenopus laevis oocytes, cRNA injected, on the oocyte surface; not shown: EGFP, C-terminal, kept"}}, "molecular_target": "the molecule itself", "experiment": "single-molecule photobleaching step counting (TIRF microscopy); MEC-4::EGFP on the Xenopus oocyte surface in the presence of MEC-19, 1-2 d after cRNA injection; observed bleaching steps compared with the binomial distribution predicted for trimers", "data": [{"protein": "B1", "values": [{"measurement": "stoichiometry N", "value": 3}]}]}
